Experiment [1] concerns the target T1, FcγRIA (CD64) (UniProt P12314 16-292, limits assumed).
T1 construct: also called FcgRIa; FcγR1A
Briefly: SPR (Biacore T200); mAb captured on Protein A, FcγRIA injected.
Protocol: (§1) Specifically, FcγRIA was injected over anti-CD154 antibody pools immobilized onto a Protein A surface (2,000 Rus; Cat #Z02201 […] ®, Piscataway, N.J.), using PBST pH 7.4 (PBS with 0.05% Tween 20) as the running buffer. […] The regeneration was conducted with 1×60s 10 mM glycine pH 1.5, flow 30 μL/min.

In experiment [2] the target is T2, CD16aF (FcγRIIIaF) (UniProt P08637 17-208). The experiment can be described thus: SPR (Biacore T200); mAb captured on Protein A, FcγR injected; steady-state affinity. In general terms: Surface plasmon resonance follows binding to a sensor surface in real time, without labels.
T2 sequence (P08637 17-208): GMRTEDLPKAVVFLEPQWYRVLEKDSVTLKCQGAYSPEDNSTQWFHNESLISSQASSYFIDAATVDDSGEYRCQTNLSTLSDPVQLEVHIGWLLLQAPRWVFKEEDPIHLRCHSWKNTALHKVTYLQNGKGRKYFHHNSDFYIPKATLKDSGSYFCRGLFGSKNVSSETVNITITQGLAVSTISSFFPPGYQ
Protocol: The analytes were antigens in the FcγR panel (CD16aF, CD16aV, CD32aH, CD32bF; National Research Council, Canada), which were resuspended in PBST containing 3.4 mM EDTA and 0.05% Tween20.
In experiment [3] the target is T1, FcγRIA (CD64). The experiment can be described thus: SPR (Biacore T200), FcγRIA binding; run with TNX06-TNX13.
Experiment [4] concerns the target T1, FcγRIA (CD64). The experiment can be described thus: SPR (Biacore T200); mAb captured on Protein A, FcγRIA injected; run with TNX01-TNX05.
Protocol: as §1
The target in experiment [5] is T1, FcγRIA (CD64). The experiment can be described thus: SPR (Biacore T200); mAb captured on Protein A, FcγRIA injected; steady-state end-point analysis.
Protocol: as §1
The target in experiment [6] is T1, FcγRIA (CD64). The experiment can be described thus: SPR (Biacore T200), FcγRIA binding.
For experiment [7], the target named is T2, CD16aF (FcγRIIIaF). Briefly: SPR (Biacore T200), low-affinity FcγR panel.
The next experiment deals with CD16aV (FcγRIIIaV) (UniProt P08637 17-208). Briefly: SPR (Biacore T200), low-affinity FcγR panel.
Sequence of CD16aV (FcγRIIIaV) (P08637 17-208 F176V): as the sequence (P08637 17-208) above, with F160V counted along it
The target in another experiment is T3, CD32aH (FcγRIIaH) (UniProt P12318 34-217).
T3 sequence (looked up): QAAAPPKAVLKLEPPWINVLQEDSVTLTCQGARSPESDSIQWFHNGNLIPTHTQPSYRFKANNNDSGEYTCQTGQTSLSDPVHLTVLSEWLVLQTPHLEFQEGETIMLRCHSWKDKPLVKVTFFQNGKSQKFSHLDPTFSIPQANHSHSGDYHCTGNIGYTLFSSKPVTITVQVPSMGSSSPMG
Briefly: SPR (Biacore T200), low-affinity FcγR panel.

T1 sequence (P12314 16-292 limits assumed): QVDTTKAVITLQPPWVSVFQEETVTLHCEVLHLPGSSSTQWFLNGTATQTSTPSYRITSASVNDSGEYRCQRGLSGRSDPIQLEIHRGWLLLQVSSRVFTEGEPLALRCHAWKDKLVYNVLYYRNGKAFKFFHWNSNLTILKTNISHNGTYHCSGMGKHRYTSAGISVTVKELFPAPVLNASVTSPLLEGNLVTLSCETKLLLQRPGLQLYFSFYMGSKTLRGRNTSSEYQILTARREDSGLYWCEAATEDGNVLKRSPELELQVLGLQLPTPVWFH

B1: TNX05 anti-CD154 monoclonal antibody (antibody, human IgG4 S228P, kappa)
heavy: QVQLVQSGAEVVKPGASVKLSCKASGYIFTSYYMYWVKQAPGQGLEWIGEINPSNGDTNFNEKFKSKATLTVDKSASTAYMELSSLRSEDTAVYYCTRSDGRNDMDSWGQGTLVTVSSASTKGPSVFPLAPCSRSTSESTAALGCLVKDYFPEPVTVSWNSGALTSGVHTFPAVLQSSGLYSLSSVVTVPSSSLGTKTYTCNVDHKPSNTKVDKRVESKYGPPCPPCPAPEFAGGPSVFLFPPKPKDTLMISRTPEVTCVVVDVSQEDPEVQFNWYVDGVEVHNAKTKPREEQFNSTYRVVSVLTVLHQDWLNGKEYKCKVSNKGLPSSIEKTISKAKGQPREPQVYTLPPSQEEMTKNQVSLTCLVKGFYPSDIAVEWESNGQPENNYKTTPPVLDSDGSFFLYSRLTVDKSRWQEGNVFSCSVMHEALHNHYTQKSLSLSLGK
light: DIVLTQSPATLSVSPGERATISCRASQRVSSSTYSYMHWYQQKPGQPPKLLIKYASNLESGVPARFSGSGSGTDFTLTISSVEPEDFATYYCQHSWEIPPTFGGGTKLEIKRTVAAPSVFIFPPSDEQLKSGTASVVCLLNNFYPREAKVQWKVDNALQSGNSQESVTEQDSKDSTYSLSSTLTLSKADYEKHKVYACEVTHQGLSSPVTKSFNRGEC
notes: also called hu5c8 mutated-IgG4 (IgG4 S228P/L235A)
Consider B1, for which, in the experiment with FcγRIA (CD64) [1], the “fold loss of activity (against TNX02)” value was 300 fold. Further, the binding result with CD16aF (FcγRIIIaF) [2] was “binds”.

B2: TNX02 anti-CD154 monoclonal antibody (antibody, human IgG1, kappa)
heavy: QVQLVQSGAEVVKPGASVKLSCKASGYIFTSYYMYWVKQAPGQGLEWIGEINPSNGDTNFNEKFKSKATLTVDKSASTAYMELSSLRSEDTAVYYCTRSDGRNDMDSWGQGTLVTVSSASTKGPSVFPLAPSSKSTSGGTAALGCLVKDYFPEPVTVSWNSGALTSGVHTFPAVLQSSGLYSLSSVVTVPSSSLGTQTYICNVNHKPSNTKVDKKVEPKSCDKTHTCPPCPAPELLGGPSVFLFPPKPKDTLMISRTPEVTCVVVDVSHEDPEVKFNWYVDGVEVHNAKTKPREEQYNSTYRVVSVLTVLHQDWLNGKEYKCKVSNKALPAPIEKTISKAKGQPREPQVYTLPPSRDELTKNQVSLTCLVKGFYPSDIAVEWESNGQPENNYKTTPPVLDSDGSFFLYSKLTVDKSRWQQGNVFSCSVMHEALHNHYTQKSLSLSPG
light: DIVLTQSPATLSVSPGERATISCRASQRVSSSTYSYMHWYQQKPGQPPKLLIKYASNLESGVPARFSGSGSGTDFTLTISSVEPEDFATYYCQHSWEIPPTFGGGTKLEIKRTVAAPSVFIFPPSDEQLKSGTASVVCLLNNFYPREAKVQWKVDNALQSGNSQESVTEQDSKDSTYSLSSTLTLSKADYEKHKVYACEVTHQGLSSPVTKSFNRGEC
notes: also called IgG1 (wildtype)
A word on the Kd: it is the equilibrium constant for the complex coming apart. As for B2, the results for the dissociation constant (Kd) with FcγRIA (CD64) [3] and with FcγRIA (CD64) [4] were roughly 0.04 nM and roughly 0.03 nM, respectively. Besides, in the experiment with CD16aF (FcγRIIIaF) [2], the binding result is reported as “binds”.

B3: TNX01 anti-CD154 monoclonal antibody (antibody, human IgG1, kappa, N297Q)
heavy: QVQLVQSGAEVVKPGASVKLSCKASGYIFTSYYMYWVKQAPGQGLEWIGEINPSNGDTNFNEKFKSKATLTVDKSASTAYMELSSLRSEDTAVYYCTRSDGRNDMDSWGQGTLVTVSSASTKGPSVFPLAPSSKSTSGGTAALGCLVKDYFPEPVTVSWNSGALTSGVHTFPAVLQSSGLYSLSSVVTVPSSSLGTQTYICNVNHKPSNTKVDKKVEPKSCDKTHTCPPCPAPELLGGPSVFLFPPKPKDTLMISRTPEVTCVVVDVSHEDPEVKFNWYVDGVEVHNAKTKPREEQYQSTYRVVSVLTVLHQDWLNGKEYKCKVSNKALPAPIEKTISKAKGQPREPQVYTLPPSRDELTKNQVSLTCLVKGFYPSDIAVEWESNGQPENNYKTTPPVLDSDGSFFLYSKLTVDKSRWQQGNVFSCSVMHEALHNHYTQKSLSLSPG
light: DIVLTQSPATLSVSPGERATISCRASQRVSSSTYSYMHWYQQKPGQPPKLLIKYASNLESGVPARFSGSGSGTDFTLTISSVEPEDFATYYCQHSWEIPPTFGGGTKLEIKRTVAAPSVFIFPPSDEQLKSGTASVVCLLNNFYPREAKVQWKVDNALQSGNSQESVTEQDSKDSTYSLSSTLTLSKADYEKHKVYACEVTHQGLSSPVTKSFNRGEC
notes: also called IgG1 (N297Q)
In the case of B3, the “fold loss of activity (against TNX02)” value in the experiment with FcγRIA (CD64) [5] is 3000 fold.

B4: TNX09 anti-CD154 monoclonal antibody (antibody, human IgG4 S228P, kappa, F234A L235A)
heavy: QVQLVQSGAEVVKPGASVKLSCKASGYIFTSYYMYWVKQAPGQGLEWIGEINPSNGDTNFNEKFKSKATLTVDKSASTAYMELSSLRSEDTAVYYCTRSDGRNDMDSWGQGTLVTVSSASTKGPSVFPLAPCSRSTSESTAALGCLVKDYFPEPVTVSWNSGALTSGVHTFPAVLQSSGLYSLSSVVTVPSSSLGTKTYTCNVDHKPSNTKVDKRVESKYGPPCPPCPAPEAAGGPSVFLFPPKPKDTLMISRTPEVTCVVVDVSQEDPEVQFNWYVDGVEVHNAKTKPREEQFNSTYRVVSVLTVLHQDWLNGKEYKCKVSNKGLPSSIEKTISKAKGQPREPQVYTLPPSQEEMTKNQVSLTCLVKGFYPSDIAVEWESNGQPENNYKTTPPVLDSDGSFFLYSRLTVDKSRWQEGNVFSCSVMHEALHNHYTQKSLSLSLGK
light: DIVLTQSPATLSVSPGERATISCRASQRVSSSTYSYMHWYQQKPGQPPKLLIKYASNLESGVPARFSGSGSGTDFTLTISSVEPEDFATYYCQHSWEIPPTFGGGTKLEIKRTVAAPSVFIFPPSDEQLKSGTASVVCLLNNFYPREAKVQWKVDNALQSGNSQESVTEQDSKDSTYSLSSTLTLSKADYEKHKVYACEVTHQGLSSPVTKSFNRGEC
notes: also called IgG4 (S228P, F234A, L235A)
As for B4, the “fold weaker binding than TNX02” value with FcγRIA (CD64) [6] was found to be 3800 fold. For the same molecule, the binding result with CD16aF (FcγRIIIaF) [7] and with CD32aH (FcγRIIaH) was “no binding” in each case. The “fold loss (against TNX02)” value in the experiment with CD16aV (FcγRIIIaV) was roughly 12 fold.

B5: TNX12 anti-CD154 monoclonal antibody (antibody, human IgG1, kappa)
heavy: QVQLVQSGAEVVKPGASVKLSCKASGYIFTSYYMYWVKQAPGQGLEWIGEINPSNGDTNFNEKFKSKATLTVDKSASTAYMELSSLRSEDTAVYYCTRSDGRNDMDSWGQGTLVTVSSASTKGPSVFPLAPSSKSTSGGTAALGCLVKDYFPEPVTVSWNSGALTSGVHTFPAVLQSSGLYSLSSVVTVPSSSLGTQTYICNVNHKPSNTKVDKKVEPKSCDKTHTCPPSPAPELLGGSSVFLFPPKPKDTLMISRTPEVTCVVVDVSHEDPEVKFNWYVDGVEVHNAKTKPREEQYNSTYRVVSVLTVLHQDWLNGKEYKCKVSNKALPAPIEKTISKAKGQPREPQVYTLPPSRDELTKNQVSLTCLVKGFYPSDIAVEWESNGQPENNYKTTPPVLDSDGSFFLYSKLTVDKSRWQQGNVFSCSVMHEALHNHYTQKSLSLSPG
light: DIVLTQSPATLSVSPGERATISCRASQRVSSSTYSYMHWYQQKPGQPPKLLIKYASNLESGVPARFSGSGSGTDFTLTISSVEPEDFATYYCQHSWEIPPTFGGGTKLEIKRTVAAPSVFIFPPSDEQLKSGTASVVCLLNNFYPREAKVQWKVDNALQSGNSQESVTEQDSKDSTYSLSSTLTLSKADYEKHKVYACEVTHQGLSSPVTKSFNRGEC
notes: also called IgG1 (C229S, P238S)
With B5, the binding result was “binds” with FcγRIA (CD64) [6], “no binding” in the experiment with CD16aF (FcγRIIIaF) [7], “no binding” with CD16aV (FcγRIIIaV) and “no binding” with CD32aH (FcγRIIaH).

B6: TNX03 anti-CD154 monoclonal antibody (antibody, human IgG1, kappa, N297G)
heavy: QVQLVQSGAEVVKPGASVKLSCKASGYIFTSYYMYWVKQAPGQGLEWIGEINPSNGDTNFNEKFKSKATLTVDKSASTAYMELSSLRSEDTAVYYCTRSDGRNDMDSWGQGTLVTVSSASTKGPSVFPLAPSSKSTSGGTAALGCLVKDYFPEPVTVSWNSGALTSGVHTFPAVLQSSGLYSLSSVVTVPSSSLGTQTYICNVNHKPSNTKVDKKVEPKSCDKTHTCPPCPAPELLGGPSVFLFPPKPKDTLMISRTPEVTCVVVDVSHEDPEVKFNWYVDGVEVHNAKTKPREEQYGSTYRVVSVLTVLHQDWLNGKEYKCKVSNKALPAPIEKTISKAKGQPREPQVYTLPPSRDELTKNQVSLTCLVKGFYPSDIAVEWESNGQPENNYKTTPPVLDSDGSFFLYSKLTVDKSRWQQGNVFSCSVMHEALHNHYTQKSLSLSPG
light: DIVLTQSPATLSVSPGERATISCRASQRVSSSTYSYMHWYQQKPGQPPKLLIKYASNLESGVPARFSGSGSGTDFTLTISSVEPEDFATYYCQHSWEIPPTFGGGTKLEIKRTVAAPSVFIFPPSDEQLKSGTASVVCLLNNFYPREAKVQWKVDNALQSGNSQESVTEQDSKDSTYSLSSTLTLSKADYEKHKVYACEVTHQGLSSPVTKSFNRGEC
notes: also called IgG1 (N297G)
For the molecule B6, the “fold loss of activity (against TNX02)” value with FcγRIA (CD64) [5] is 3000 fold.

B7: TNX11 anti-CD154 monoclonal antibody (antibody, human IgG1, kappa)
heavy: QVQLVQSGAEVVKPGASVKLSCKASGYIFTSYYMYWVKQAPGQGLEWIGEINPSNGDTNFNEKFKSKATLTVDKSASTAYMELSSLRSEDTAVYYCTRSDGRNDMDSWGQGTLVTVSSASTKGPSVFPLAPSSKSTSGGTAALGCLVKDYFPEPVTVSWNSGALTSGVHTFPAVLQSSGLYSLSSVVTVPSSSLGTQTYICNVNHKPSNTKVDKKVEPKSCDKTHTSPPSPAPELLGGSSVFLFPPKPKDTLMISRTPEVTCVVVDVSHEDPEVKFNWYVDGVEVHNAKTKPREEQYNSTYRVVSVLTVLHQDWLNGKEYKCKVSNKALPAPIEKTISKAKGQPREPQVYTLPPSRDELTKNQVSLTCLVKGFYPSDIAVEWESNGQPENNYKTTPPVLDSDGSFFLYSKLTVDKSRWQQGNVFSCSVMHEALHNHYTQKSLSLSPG
light: DIVLTQSPATLSVSPGERATISCRASQRVSSSTYSYMHWYQQKPGQPPKLLIKYASNLESGVPARFSGSGSGTDFTLTISSVEPEDFATYYCQHSWEIPPTFGGGTKLEIKRTVAAPSVFIFPPSDEQLKSGTASVVCLLNNFYPREAKVQWKVDNALQSGNSQESVTEQDSKDSTYSLSSTLTLSKADYEKHKVYACEVTHQGLSSPVTKSFNRGEC
notes: also called IgG1 (C226S, C229S, P238S)
On to B7, for which the binding result with FcγRIA (CD64) [6] is reported as “binds”.

B8: TNX04 anti-CD154 monoclonal antibody (antibody)
heavy: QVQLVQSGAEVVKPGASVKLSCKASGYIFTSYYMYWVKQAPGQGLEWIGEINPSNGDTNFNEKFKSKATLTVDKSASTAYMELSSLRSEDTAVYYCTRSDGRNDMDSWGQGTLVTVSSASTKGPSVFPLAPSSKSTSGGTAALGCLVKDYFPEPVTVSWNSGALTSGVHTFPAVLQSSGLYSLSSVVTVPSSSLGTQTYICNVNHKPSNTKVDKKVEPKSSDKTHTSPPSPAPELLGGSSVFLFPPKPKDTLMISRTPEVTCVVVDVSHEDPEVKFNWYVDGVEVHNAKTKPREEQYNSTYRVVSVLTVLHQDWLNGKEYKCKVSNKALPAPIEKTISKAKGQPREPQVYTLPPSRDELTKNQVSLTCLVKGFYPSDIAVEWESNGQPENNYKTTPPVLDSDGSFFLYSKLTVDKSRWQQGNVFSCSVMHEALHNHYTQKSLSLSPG
light: DIVLTQSPATLSVSPGERATISCRASQRVSSSTYSYMHWYQQKPGQPPKLLIKYASNLESGVPARFSGSGSGTDFTLTISSVEPEDFATYYCQHSWEIPPTFGGGTKLEIKRTVAAPSVFIFPPSDEQLKSGTASVVCLLNNFYPREAKVQWKVDNALQSGNSQESVTEQDSKDSTYSLSSTLTLSKADYEKHKVYACEVTHQGLSSPVTKSFNRGEC
notes: also called IgG1 (C220S, C226S, C229S, P238S)
Take B8: the “fold loss of activity (against TNX02)” value with FcγRIA (CD64) [1] was 11 fold. For the same molecule, in the experiment with CD16aF (FcγRIIIaF) [2], the binding result is reported as “no binding (tested: 12 µM to 0.062 µM)”.

B9: TNX08 anti-CD154 monoclonal antibody (antibody, human IgG4 S228P, kappa)
heavy: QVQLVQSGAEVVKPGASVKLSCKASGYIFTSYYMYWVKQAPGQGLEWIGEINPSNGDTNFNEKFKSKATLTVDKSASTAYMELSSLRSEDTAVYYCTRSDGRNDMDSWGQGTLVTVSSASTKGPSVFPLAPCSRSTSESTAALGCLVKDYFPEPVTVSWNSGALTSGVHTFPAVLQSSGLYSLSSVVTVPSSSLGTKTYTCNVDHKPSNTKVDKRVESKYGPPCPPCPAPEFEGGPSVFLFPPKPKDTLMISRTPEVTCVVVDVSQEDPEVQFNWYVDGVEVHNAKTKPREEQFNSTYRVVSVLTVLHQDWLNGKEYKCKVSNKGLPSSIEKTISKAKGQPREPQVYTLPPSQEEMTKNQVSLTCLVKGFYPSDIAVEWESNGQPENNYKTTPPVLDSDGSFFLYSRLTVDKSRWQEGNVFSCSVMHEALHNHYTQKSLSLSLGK
light: DIVLTQSPATLSVSPGERATISCRASQRVSSSTYSYMHWYQQKPGQPPKLLIKYASNLESGVPARFSGSGSGTDFTLTISSVEPEDFATYYCQHSWEIPPTFGGGTKLEIKRTVAAPSVFIFPPSDEQLKSGTASVVCLLNNFYPREAKVQWKVDNALQSGNSQESVTEQDSKDSTYSLSSTLTLSKADYEKHKVYACEVTHQGLSSPVTKSFNRGEC
notes: also called IgG4 (S228P, L235E)
With B9, in the experiment with FcγRIA (CD64) [6], the “fold weaker binding than TNX02” value is 2600 fold. The binding result in the experiment with CD16aF (FcγRIIIaF) [7] is given as “binds”.

B10: TNX10 anti-CD154 monoclonal antibody (antibody, human IgG1, kappa, L234A L235A)
heavy: not shown
light: DIVLTQSPATLSVSPGERATISCRASQRVSSSTYSYMHWYQQKPGQPPKLLIKYASNLESGVPARFSGSGSGTDFTLTISSVEPEDFATYYCQHSWEIPPTFGGGTKLEIKRTVAAPSVFIFPPSDEQLKSGTASVVCLLNNFYPREAKVQWKVDNALQSGNSQESVTEQDSKDSTYSLSSTLTLSKADYEKHKVYACEVTHQGLSSPVTKSFNRGEC
notes: also called IgG1 (L234A, L235A)
Regarding B10, the “fold weaker binding than TNX02” value with FcγRIA (CD64) [6] is 1800 fold. Besides, the binding result with CD16aF (FcγRIIIaF) [7] and with CD32aH (FcγRIIaH) was “no binding” in each case. Also, in the experiment with CD16aV (FcγRIIIaV), the “fold loss (against TNX02)” value is roughly 12 fold.

B11: TNX06 anti-CD154 monoclonal antibody (antibody, human IgG4, kappa)
heavy: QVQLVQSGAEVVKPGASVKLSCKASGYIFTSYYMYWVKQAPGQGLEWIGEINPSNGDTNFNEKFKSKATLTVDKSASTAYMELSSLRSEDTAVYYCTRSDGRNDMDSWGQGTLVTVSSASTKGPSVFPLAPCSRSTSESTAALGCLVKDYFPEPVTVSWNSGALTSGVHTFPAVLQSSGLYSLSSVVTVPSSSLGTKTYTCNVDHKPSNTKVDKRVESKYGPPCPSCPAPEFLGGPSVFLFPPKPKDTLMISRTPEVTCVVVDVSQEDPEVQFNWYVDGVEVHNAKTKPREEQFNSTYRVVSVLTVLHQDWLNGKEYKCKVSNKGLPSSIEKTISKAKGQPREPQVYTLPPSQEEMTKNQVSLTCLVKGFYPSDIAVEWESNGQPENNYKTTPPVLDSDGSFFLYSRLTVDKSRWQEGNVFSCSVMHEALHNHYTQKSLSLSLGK
light: DIVLTQSPATLSVSPGERATISCRASQRVSSSTYSYMHWYQQKPGQPPKLLIKYASNLESGVPARFSGSGSGTDFTLTISSVEPEDFATYYCQHSWEIPPTFGGGTKLEIKRTVAAPSVFIFPPSDEQLKSGTASVVCLLNNFYPREAKVQWKVDNALQSGNSQESVTEQDSKDSTYSLSSTLTLSKADYEKHKVYACEVTHQGLSSPVTKSFNRGEC
notes: also called IgG4 Wild Type
For B11, the binding result in the experiment with FcγRIA (CD64) [6] and with CD16aF (FcγRIIIaF) [7] was “binds” in each case.

B12: TNX13 anti-CD154 monoclonal antibody (antibody, human IgG1, kappa)
heavy: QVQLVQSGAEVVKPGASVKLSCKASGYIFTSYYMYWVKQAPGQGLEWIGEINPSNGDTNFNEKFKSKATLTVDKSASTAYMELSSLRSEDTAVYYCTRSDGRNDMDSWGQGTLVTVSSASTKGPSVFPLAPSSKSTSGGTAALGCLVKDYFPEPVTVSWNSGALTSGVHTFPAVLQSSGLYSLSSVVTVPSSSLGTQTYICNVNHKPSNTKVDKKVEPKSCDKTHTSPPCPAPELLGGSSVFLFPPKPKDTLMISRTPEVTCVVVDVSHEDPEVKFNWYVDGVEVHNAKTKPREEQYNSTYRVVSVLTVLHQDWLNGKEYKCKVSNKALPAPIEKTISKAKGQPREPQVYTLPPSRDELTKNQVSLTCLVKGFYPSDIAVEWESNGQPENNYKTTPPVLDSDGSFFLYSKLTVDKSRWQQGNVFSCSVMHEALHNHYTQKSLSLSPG
light: DIVLTQSPATLSVSPGERATISCRASQRVSSSTYSYMHWYQQKPGQPPKLLIKYASNLESGVPARFSGSGSGTDFTLTISSVEPEDFATYYCQHSWEIPPTFGGGTKLEIKRTVAAPSVFIFPPSDEQLKSGTASVVCLLNNFYPREAKVQWKVDNALQSGNSQESVTEQDSKDSTYSLSSTLTLSKADYEKHKVYACEVTHQGLSSPVTKSFNRGEC
notes: also called IgG1 (C226S, P238S)
B12: the binding result in the experiment with FcγRIA (CD64) [6] is on record as “binds”; with CD16aF (FcγRIIIaF) [7] it was “no binding”; in the experiment with CD16aV (FcγRIIIaV) it was “no binding”. In the experiment with CD32aH (FcγRIIaH), the “fold loss of binding activity (against TNX02)” value came to 17 fold.

The values above are taken from patent US20220380478A1 (TONIX PHARMA, published 2022).
